Source: patent US20060233785A1, “Immunointeractive molecules and uses thereof” (priority 2001, published 2006)

System: rHev b 6-specific serum IgE
Assay: Immunoblotting detecting rHev b 6-specific serum IgE (Example 3)
Type: binding, human
Settings: sera from patients 1, 4 and 5; prohevein band around 20 kDa
Procedure: FIG. 4 is an image of immunoblotting detecting rHev b 6-specific serum IgE. rHev b 6 was subjected to electrophoresis under reducing conditions on a 16% SDS PAGE minigel and transferred to a nitrocellulose membrane. After blocking with skim milk powder, the membrane was incubated with serum from latex allergic and non-allergic subjects (1:5 dilution). Antibody binding was detected by incubation with rabbit anti-human IgE, swine anti-rabbit immunoglobulins-HRP and 4-chloro-1-naphthol as substrate. M: molecular mass markers; C: Coomassie-stained gel; lane 1: 1A5.4.3 monoclonal antibody; lane 2: P1 serum; lane 3: P4 serum; lane 4: P5 serum; lane 5: non-latex-allergic serum; lane 6: no serum.
Hybridoma supernatants and patient sera were tested for reactivity with LAL, NAL, glove extract, rHev b 6 and hevein by 16% SDS-PAGE and immunoblotting as described previously (Sutherland et al., 2002, supra).

B1: rHev b 6: recombinant Hev b 6 (prohevein) expressed in E. coli from pPROEX-HTa with 6-His tag (protein)
chain: EQCGRQAGGKLCPNNLCCSQWGWCGSTDEYCSPDHNCQSNCKDSGEGVGGGSASNVLATYHLYNSQDHGWDLNAASAYCSTWDANKPYSWRSKYGWTAFCGPVGAHGQSSCGKCLSVTNTGTGAKTTVRIVDQCSNGGLDLDVNVFRQLDTDGKGYERGHITVNYQFVDCGDSFNPLFSVMKSSVIN
modifications: left off: small tags and cut ends
notes: recombinant Hev b 6 (prohevein) expressed in E. coli from pPROEX-HTa with 6-His tag
serum IgE reactivity by Western blotting: all showed reactivity
